Experimental data published in US20260015399A1 (Boehringer Ingelheim, published 2026).
*1 amine or outer side, *2 acyl side, *3 side chain or, on linkers, in order; H or OH if unused. Side-chain parts run from the residue outwards. The star is where a group is joined. C18 diacid = O=C(O)CCCCCCCCCCCCCCCCC(=O)*; γGlu = O=C(O)[C@H](CCC(=O)[*:2])N[*:1]; Isovaleryl = CC(C)CC(=O)*; Ahx = NCCCCCC(=O)O

Molecular target: T1, human NPY2 receptor (human, UniProt P49146 1-381)
T1 construct: whole, on cells; also called hNPY2-R; hNPY2R
T1 sequence (looked up): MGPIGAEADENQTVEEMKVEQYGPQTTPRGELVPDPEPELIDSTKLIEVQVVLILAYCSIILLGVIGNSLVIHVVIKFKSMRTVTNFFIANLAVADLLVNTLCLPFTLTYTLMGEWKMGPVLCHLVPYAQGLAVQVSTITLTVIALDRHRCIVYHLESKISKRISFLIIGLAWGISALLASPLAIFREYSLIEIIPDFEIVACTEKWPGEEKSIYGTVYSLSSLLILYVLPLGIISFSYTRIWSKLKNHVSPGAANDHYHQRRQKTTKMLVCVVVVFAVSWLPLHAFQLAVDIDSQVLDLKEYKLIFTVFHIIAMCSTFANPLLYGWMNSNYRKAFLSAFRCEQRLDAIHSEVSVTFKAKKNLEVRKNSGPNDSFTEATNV
Experiment: RLB: displacement of 125I-PYY(1-36) from hNPY2R membranes

B1: Compound 164 (peptide)
peptide: Isovaleryl-APEK([Ahx-γGlu-C18 diacid])PEEDATPEEIQRYYQSLRHYYNWLTRQRY-NH2
SMILES: CC[C@H](C)[C@H](NC(=O)[C@H](CCC(=O)O)NC(=O)[C@H](CCC(=O)O)NC(=O)[C@@H]1CCCN1C(=O)[C@@H](NC(=O)[C@H](C)NC(=O)[C@H](CC(=O)O)NC(=O)[C@H](CCC(=O)O)NC(=O)[C@H](CCC(=O)O)NC(=O)[C@@H]1CCCN1C(=O)[C@H](CCCCNC(=O)CCCCCNC(=O)CC[C@H](NC(=O)CCCCCCCCCCCCCCCCC(=O)O)C(=O)O)NC(=O)[C@H](CCC(=O)O)NC(=O)[C@@H]1CCCN1C(=O)[C@H](C)NC(=O)CC(C)C)[C@@H](C)O)C(=O)N[C@@H](CCC(N)=O)C(=O)N[C@@H](CCCNC(=N)N)C(=O)N[C@@H](Cc1ccc(O)cc1)C(=O)N[C@@H](Cc1ccc(O)cc1)C(=O)N[C@@H](CCC(N)=O)C(=O)N[C@@H](CO)C(=O)N[C@@H](CC(C)C)C(=O)N[C@@H](CCCNC(=N)N)C(=O)N[C@@H](Cc1c[nH]cn1)C(=O)N[C@@H](Cc1ccc(O)cc1)C(=O)N[C@@H](Cc1ccc(O)cc1)C(=O)N[C@@H](CC(N)=O)C(=O)N[C@@H](Cc1c[nH]c2ccccc12)C(=O)N[C@@H](CC(C)C)C(=O)N[C@H](C(=O)N[C@@H](CCCNC(=N)N)C(=O)N[C@@H](CCC(N)=O)C(=O)N[C@@H](CCCNC(=N)N)C(=O)N[C@@H](Cc1ccc(O)cc1)C(N)=O)[C@@H](C)O
  Ki: 2.8 nM

B2: Compound 166 (peptide)
peptide: Isovaleryl-APAK([Ahx-γGlu-C18 diacid])PEEDASPEELQRYYVELRHYYNWLTRQRY-NH2
SMILES: CC(C)CC(=O)N[C@@H](C)C(=O)N1CCC[C@H]1C(=O)N[C@@H](C)C(=O)N[C@@H](CCCCNC(=O)CCCCCNC(=O)CC[C@H](NC(=O)CCCCCCCCCCCCCCCCC(=O)O)C(=O)O)C(=O)N1CCC[C@H]1C(=O)N[C@@H](CCC(=O)O)C(=O)N[C@@H](CCC(=O)O)C(=O)N[C@@H](CC(=O)O)C(=O)N[C@@H](C)C(=O)N[C@@H](CO)C(=O)N1CCC[C@H]1C(=O)N[C@@H](CCC(=O)O)C(=O)N[C@@H](CCC(=O)O)C(=O)N[C@@H](CC(C)C)C(=O)N[C@@H](CCC(N)=O)C(=O)N[C@@H](CCCNC(=N)N)C(=O)N[C@@H](Cc1ccc(O)cc1)C(=O)N[C@@H](Cc1ccc(O)cc1)C(=O)N[C@H](C(=O)N[C@@H](CCC(=O)O)C(=O)N[C@@H](CC(C)C)C(=O)N[C@@H](CCCNC(=N)N)C(=O)N[C@@H](Cc1c[nH]cn1)C(=O)N[C@@H](Cc1ccc(O)cc1)C(=O)N[C@@H](Cc1ccc(O)cc1)C(=O)N[C@@H](CC(N)=O)C(=O)N[C@@H](Cc1c[nH]c2ccccc12)C(=O)N[C@@H](CC(C)C)C(=O)N[C@H](C(=O)N[C@@H](CCCNC(=N)N)C(=O)N[C@@H](CCC(N)=O)C(=O)N[C@@H](CCCNC(=N)N)C(=O)N[C@@H](Cc1ccc(O)cc1)C(N)=O)[C@@H](C)O)C(C)C
  Ki: 2.05 nM

B3: Compound 167 (peptide)
peptide: Isovaleryl-APAK([Ahx-γGlu-C18 diacid])PEEAAEPEEIQRYYVALRHYYNWLTRQRY-NH2
SMILES: CC[C@H](C)[C@H](NC(=O)[C@H](CCC(=O)O)NC(=O)[C@H](CCC(=O)O)NC(=O)[C@@H]1CCCN1C(=O)[C@H](CCC(=O)O)NC(=O)[C@H](C)NC(=O)[C@H](C)NC(=O)[C@H](CCC(=O)O)NC(=O)[C@H](CCC(=O)O)NC(=O)[C@@H]1CCCN1C(=O)[C@H](CCCCNC(=O)CCCCCNC(=O)CC[C@H](NC(=O)CCCCCCCCCCCCCCCCC(=O)O)C(=O)O)NC(=O)[C@H](C)NC(=O)[C@@H]1CCCN1C(=O)[C@H](C)NC(=O)CC(C)C)C(=O)N[C@@H](CCC(N)=O)C(=O)N[C@@H](CCCNC(=N)N)C(=O)N[C@@H](Cc1ccc(O)cc1)C(=O)N[C@@H](Cc1ccc(O)cc1)C(=O)N[C@H](C(=O)N[C@@H](C)C(=O)N[C@@H](CC(C)C)C(=O)N[C@@H](CCCNC(=N)N)C(=O)N[C@@H](Cc1c[nH]cn1)C(=O)N[C@@H](Cc1ccc(O)cc1)C(=O)N[C@@H](Cc1ccc(O)cc1)C(=O)N[C@@H](CC(N)=O)C(=O)N[C@@H](Cc1c[nH]c2ccccc12)C(=O)N[C@@H](CC(C)C)C(=O)N[C@H](C(=O)N[C@@H](CCCNC(=N)N)C(=O)N[C@@H](CCC(N)=O)C(=O)N[C@@H](CCCNC(=N)N)C(=O)N[C@@H](Cc1ccc(O)cc1)C(N)=O)[C@@H](C)O)C(C)C
  Ki: 4.58 nM

B4: Compound 169 (peptide)
peptide: Isovaleryl-APEK([Ahx-γGlu-C18 diacid])PEEDAEPEELQAYYVSLRHYYNWLTRQRY-NH2
SMILES: CC(C)CC(=O)N[C@@H](C)C(=O)N1CCC[C@H]1C(=O)N[C@@H](CCC(=O)O)C(=O)N[C@@H](CCCCNC(=O)CCCCCNC(=O)CC[C@H](NC(=O)CCCCCCCCCCCCCCCCC(=O)O)C(=O)O)C(=O)N1CCC[C@H]1C(=O)N[C@@H](CCC(=O)O)C(=O)N[C@@H](CCC(=O)O)C(=O)N[C@@H](CC(=O)O)C(=O)N[C@@H](C)C(=O)N[C@@H](CCC(=O)O)C(=O)N1CCC[C@H]1C(=O)N[C@@H](CCC(=O)O)C(=O)N[C@@H](CCC(=O)O)C(=O)N[C@@H](CC(C)C)C(=O)N[C@@H](CCC(N)=O)C(=O)N[C@@H](C)C(=O)N[C@@H](Cc1ccc(O)cc1)C(=O)N[C@@H](Cc1ccc(O)cc1)C(=O)N[C@H](C(=O)N[C@@H](CO)C(=O)N[C@@H](CC(C)C)C(=O)N[C@@H](CCCNC(=N)N)C(=O)N[C@@H](Cc1c[nH]cn1)C(=O)N[C@@H](Cc1ccc(O)cc1)C(=O)N[C@@H](Cc1ccc(O)cc1)C(=O)N[C@@H](CC(N)=O)C(=O)N[C@@H](Cc1c[nH]c2ccccc12)C(=O)N[C@@H](CC(C)C)C(=O)N[C@H](C(=O)N[C@@H](CCCNC(=N)N)C(=O)N[C@@H](CCC(N)=O)C(=O)N[C@@H](CCCNC(=N)N)C(=O)N[C@@H](Cc1ccc(O)cc1)C(N)=O)[C@@H](C)O)C(C)C
  Ki: 5.82 nM

B5: Compound 170 (peptide)
peptide: Isovaleryl-APEK([Ahx-γGlu-C18 diacid])PEEDAAPEEIQRYYVSLRHYYNWLTRQRY-NH2
SMILES: CC[C@H](C)[C@H](NC(=O)[C@H](CCC(=O)O)NC(=O)[C@H](CCC(=O)O)NC(=O)[C@@H]1CCCN1C(=O)[C@H](C)NC(=O)[C@H](C)NC(=O)[C@H](CC(=O)O)NC(=O)[C@H](CCC(=O)O)NC(=O)[C@H](CCC(=O)O)NC(=O)[C@@H]1CCCN1C(=O)[C@H](CCCCNC(=O)CCCCCNC(=O)CC[C@H](NC(=O)CCCCCCCCCCCCCCCCC(=O)O)C(=O)O)NC(=O)[C@H](CCC(=O)O)NC(=O)[C@@H]1CCCN1C(=O)[C@H](C)NC(=O)CC(C)C)C(=O)N[C@@H](CCC(N)=O)C(=O)N[C@@H](CCCNC(=N)N)C(=O)N[C@@H](Cc1ccc(O)cc1)C(=O)N[C@@H](Cc1ccc(O)cc1)C(=O)N[C@H](C(=O)N[C@@H](CO)C(=O)N[C@@H](CC(C)C)C(=O)N[C@@H](CCCNC(=N)N)C(=O)N[C@@H](Cc1c[nH]cn1)C(=O)N[C@@H](Cc1ccc(O)cc1)C(=O)N[C@@H](Cc1ccc(O)cc1)C(=O)N[C@@H](CC(N)=O)C(=O)N[C@@H](Cc1c[nH]c2ccccc12)C(=O)N[C@@H](CC(C)C)C(=O)N[C@H](C(=O)N[C@@H](CCCNC(=N)N)C(=O)N[C@@H](CCC(N)=O)C(=O)N[C@@H](CCCNC(=N)N)C(=O)N[C@@H](Cc1ccc(O)cc1)C(N)=O)[C@@H](C)O)C(C)C
  Ki: 2.28 nM

B6: Compound 171 (peptide)
peptide: Isovaleryl-APEK([Ahx-γGlu-C18 diacid])PEADASPEELQRYYVELRHYYNWLTRQRY-NH2
SMILES: CC(C)CC(=O)N[C@@H](C)C(=O)N1CCC[C@H]1C(=O)N[C@@H](CCC(=O)O)C(=O)N[C@@H](CCCCNC(=O)CCCCCNC(=O)CC[C@H](NC(=O)CCCCCCCCCCCCCCCCC(=O)O)C(=O)O)C(=O)N1CCC[C@H]1C(=O)N[C@@H](CCC(=O)O)C(=O)N[C@@H](C)C(=O)N[C@@H](CC(=O)O)C(=O)N[C@@H](C)C(=O)N[C@@H](CO)C(=O)N1CCC[C@H]1C(=O)N[C@@H](CCC(=O)O)C(=O)N[C@@H](CCC(=O)O)C(=O)N[C@@H](CC(C)C)C(=O)N[C@@H](CCC(N)=O)C(=O)N[C@@H](CCCNC(=N)N)C(=O)N[C@@H](Cc1ccc(O)cc1)C(=O)N[C@@H](Cc1ccc(O)cc1)C(=O)N[C@H](C(=O)N[C@@H](CCC(=O)O)C(=O)N[C@@H](CC(C)C)C(=O)N[C@@H](CCCNC(=N)N)C(=O)N[C@@H](Cc1c[nH]cn1)C(=O)N[C@@H](Cc1ccc(O)cc1)C(=O)N[C@@H](Cc1ccc(O)cc1)C(=O)N[C@@H](CC(N)=O)C(=O)N[C@@H](Cc1c[nH]c2ccccc12)C(=O)N[C@@H](CC(C)C)C(=O)N[C@H](C(=O)N[C@@H](CCCNC(=N)N)C(=O)N[C@@H](CCC(N)=O)C(=O)N[C@@H](CCCNC(=N)N)C(=O)N[C@@H](Cc1ccc(O)cc1)C(N)=O)[C@@H](C)O)C(C)C
  Ki: 2.83 nM
